Test results: patent publication US20160264649A1

What was measured:
Experiment in all cases: cell-based or functional assay
[1] = target: HIV-1 92RW008 Env (HIV-1)
[2] = target: HIV-1 92TH021 Env (HIV-1)
[3] = target: HIV-1 92UG031 Env (HIV-1)
[4] = target: HIV-1 92UG037 Env (HIV-1)
[5] = target: HIV-1 92WR009 Env (HIV-1)
[6] = target: HIV-1 92WR020 Env (HIV-1)
[7] = target: HIV-1 92WR021 Env (HIV-1)
[8] = target: HIV-1 92WR024 Env (HIV-1)
[9] = target: HIV-1 92WR026 Env (HIV-1)
[10] = target: HIV-1 93UG077 Env (HIV-1)
[11] = target: HIV-1 93WR029 Env (HIV-1)
[12] = target: HIV-1 94KE105 Env (HIV-1)
[13] = target: HIV-1 94UG103 Env (HIV-1)
HIV-1 CMU02 Env (HIV-1) = target: HIV-1 CMU02 Env (HIV-1)
[14] = target: HIV-1 Env of isolate MG RM-C-019 (subtype C) (HIV-1)
[15] = target: HIV-1 Env of isolate MG RM-C-020 (subtype C) (HIV-1)
[16] = target: HIV-1 Env of isolate MG RM-C-022 (subtype C) (HIV-1)
[17] = target: HIV-1 Env of isolate MG RM-C-023 (subtype C) (HIV-1)
[18] = target: HIV-1 Env of isolate MG RM-C-024 (subtype C) (HIV-1)
[19] = target: HIV-1 Env of isolate MG RM-C-025 (subtype C) (HIV-1)
[20] = target: HIV-1 Env of isolate MG RM-C-026 (subtype C) (HIV-1)
[21] = target: HIV-1 Env of isolate MG RM-C-027 (subtype C) (HIV-1)
[22] = target: HIV-1 Env of isolate MG RM-C-028 (subtype C) (HIV-1)
[23] = target: HIV-1 MGRM-A-001 Env (HIV-1)
[24] = target: HIV-1 MGRM-A-002 Env (HIV-1)
[25] = target: HIV-1 MGRM-A-003 Env (HIV-1)
[26] = target: HIV-1 MGRM-A-004 Env (HIV-1)
[27] = target: HIV-1 MGRM-A-005 Env (HIV-1)
[28] = target: HIV-1 MGRM-A-006 Env (HIV-1)
[29] = target: HIV-1 MGRM-A-007 Env (HIV-1)
[30] = target: HIV-1 MGRM-A-008 Env (HIV-1)
[31] = target: HIV-1 MGRM-A-009 Env (HIV-1)
[32] = target: HIV-1 MGRM-A-010 Env (HIV-1)
[33] = target: HIV-1 MGRM-A-011 Env (HIV-1)
[34] = target: HIV-1 MGRM-A-012 Env (HIV-1)
[35] = target: HIV-1 MGRM-A-013 Env (HIV-1)
[36] = target: HIV-1 MGRM-A-014 Env (HIV-1)
[37] = target: HIV-1 MGRM-AE-001 Env (HIV-1)
[38] = target: HIV-1 MGRM-AE-002 Env (HIV-1)
[39] = target: HIV-1 MGRM-AE-003 Env (HIV-1)
[40] = target: HIV-1 MGRM-AE-004 Env (HIV-1)
[41] = target: HIV-1 MGRM-AE-005 Env (HIV-1)
[42] = target: HIV-1 MGRM-AE-006 Env (HIV-1)
[43] = target: HIV-1 MGRM-AE-007 Env (HIV-1)
[44] = target: HIV-1 MGRM-AE-008 Env (HIV-1)
[45] = target: HIV-1 MGRM-AG-001 Env (HIV-1)
[46] = target: HIV-1 MGRM-AG-002 Env (HIV-1)
[47] = target: HIV-1 MGRM-AG-003 Env (HIV-1)
[48] = target: HIV-1 MGRM-AG-005 Env (HIV-1)
[49] = target: HIV-1 MGRM-AG-006 Env (HIV-1)
[50] = target: HIV-1 MGRM-AG-008 Env (HIV-1)
[51] = target: HIV-1 MGRM-AG-009 Env (HIV-1)
[52] = target: HIV-1 MGRM-AG-011 Env (HIV-1)
[53] = target: HIV-1 MGRM-AG-012 Env (HIV-1)
[54] = target: HIV-1 MGRM-AG-013 Env (HIV-1)
HIV-1 VLGCA1 Env (HIV-1) = target: HIV-1 VLGCA1 Env (HIV-1)

Substance: 5343_B08 (PGT-135) (antibody)
- IC50 [1]: 1.42 mg/L
- IC50 [2]: > 50 mg/L
- IC50 [3]: > 50 mg/L
- IC50 [4]: 3.67 mg/L
- IC50 [5]: > 50 mg/L
- IC50 [6]: 0.067 mg/L
- IC50 [7]: > 50 mg/L
- IC50 [8]: > 50 mg/L
- IC50 [9]: 0.068 mg/L
- IC50 [10]: > 50 mg/L
- IC50 [11]: > 50 mg/L
- IC50 [12]: 0.063 mg/L
- IC50 [13]: > 50 mg/L
- IC50 (HIV-1 CMU02 Env (HIV-1)): > 50 mg/L
- IC50 [14]: 0.264 mg/L
- IC50 [15]: > 50 mg/L
- IC50 [16]: > 50 mg/L
- IC50 [17]: 0.061 mg/L
- IC50 [18]: > 50 mg/L
- IC50 [19]: > 50 mg/L
- IC50 [20]: 0.004 mg/L
- IC50 [21]: > 50 mg/L
- IC50 [22]: 1.47 mg/L
- IC50 [23]: > 50 mg/L
- IC50 [24]: > 50 mg/L
- IC50 [25]: > 50 mg/L
- IC50 [26]: > 50 mg/L
- IC50 [27]: > 50 mg/L
- IC50 [28]: > 50 mg/L
- IC50 [29]: > 50 mg/L
- IC50 [30]: > 50 mg/L
- IC50 [31]: > 50 mg/L
- IC50 [32]: > 50 mg/L
- IC50 [33]: > 50 mg/L
- IC50 [34]: > 50 mg/L
- IC50 [35]: > 50 mg/L
- IC50 [36]: 0.636 mg/L
- IC50 [37]: > 50 mg/L
- IC50 [38]: > 50 mg/L
- IC50 [39]: > 50 mg/L
- IC50 [40]: > 50 mg/L
- IC50 [41]: > 50 mg/L
- IC50 [42]: > 50 mg/L
- IC50 [43]: > 50 mg/L
- IC50 [44]: > 50 mg/L
- IC50 [45]: > 50 mg/L
- IC50 [46]: > 50 mg/L
- IC50 [47]: > 50 mg/L
- IC50 [48]: > 50 mg/L
- IC50 [49]: 17.9 mg/L
- IC50 [50]: > 50 mg/L
- IC50 [51]: > 50 mg/L
- IC50 [52]: > 50 mg/L
- IC50 [53]: 41.9 mg/L
- IC50 [54]: > 50 mg/L
- IC50 (HIV-1 VLGCA1 Env (HIV-1)): > 50 mg/L
